Substrate: pcPET (post-consumer)
Experiment: Proxy for plastic degradation [Released monomer concentration (HPLC/LC-MS) (TPA+MHET+BHET)]
Settings: pH 9

Protein	Proxy for plastic degradation (40 °C, 24 h)	Proxy for plastic degradation (60 °C, 6 h)
unnamed (protein) MLSFLRSTGRPERRRASLPALLLFTAALVASGLTAAPAAQAADNPYQRGPDPTNASIEAATGPFAVGTQPIVGASGFGGGQIYYPTDTSQTYGAVVIVPGFISVWAQLNWLGPRLASQGFVVIGIETSTITDLPDPRGDQALAALDWATTRSPVASRIDRTRLAAAGWSMGGGGLRRAALQRPSLKAIVGMAPWNGERNWSAVTVPTLFFGGSSDAVASPNDHAKPFYNSITRAEKDYIELRNADHFFPTSANTTMAKYFISWLKRWVDNDTRYTQFLCPGPSTGLFAPVSASMNTCPF	990 µM	–
unnamed (protein) MLSFLRSTGRPERRRASLPALLLFTAALVASGLTAAPAAQAADNPYQRGPDPTNASIEAATGPFAVGTQPIVGASGFGGGQIYYPTDTSQTYGAVVIVPGFISVWAQLAWLGPRLASQGFVVIGIETSTITDLPDPRGDQALAALDWATTRSPVRSRIDRTRLAAAGWSMGGGGLRRAACQRPSLKAIVGMAPWNTEKNWSCVTVPTLFFGGSSDAVASPNDHAKPFYNSITRAEKDYIELCNADHFFPTSANTTMAKYFISWLKRWVDNDTRYTQFLCPGPSTGLFAPVCASMNTCPF	1370 µM	1860 µM
unnamed (protein) MLSFLRSTGRPERRRASLPALLLFTAALVASGLTAAPAAQAADNPYQRGPDPTNASIEAATGPFAVGTQPIVGASGFGGGQIYYPTDTSQTYGAVVIVPGFISVWAQLNWLGPRLASQGFVVIGIETSVITDLPDPRGDQALAALDWATTRSPVASRIDRTRLAAAGWSMGGGGLRRAALQRPSLKAIVGMAPWNGERNWSATTVPTLFFGGSSDAVASPNDHAKPFYNSITRAEKDYIELRNADHFFPTSANTTMAKYFISWLKRWVDNDTRYTQFLCPGPSTGLFAPVSASMNTCPF	170 µM	–
unnamed (protein) MLSFLRSTGRPERRRASLPALLLFTAALVASGLTAAPAAQAADNPYQRGPDPTNASIEAATGPFAVGTQPIVGASGFGGGQIYYPTDTSQTYGAVVIVPGFISVWAQLNWLGPRLASQGFVVIGIETSVITDLPDPRGDQALAALDWATTASPVASRIDRTRLAAAGWSMGGGGLRRAALQRPSLKAIVGMAPWNGERNWSAVTVPTLFFGGSSDAVASPNDHAKPFYNSITRAEKDYIELRNADHFFPTSANTTMAKYFISWLKRWVDNDTRYTQFLCPGPSTGLFAPVSASMNTCPF	600 µM	–
unnamed (protein) MLSFLRSTGRPERRRASLPALLLFTAALVASGLTAAPAAQAADNPYQRGPDPTNASIEAATGPFAVGTQPIVGASGFGGGQIYYPTDTSQTYGAVVIVPGFISVWAQLNWLGPRLASQGFVVIGIETSVITDLPDPRGDQALAALDWATTRSPVASRIDRTRLAAAGWSMGGGGLRRAACQRPSLKAIVGMAPWNGERNWSCVTVPTLFFGGSSDAVASPNDHAKPFYNSITRAEKDYIELRNADHFFPTSANTTMAKYFISWLKRWVDNDTRYTQFLCPGPSTGLFAPVSASMNTCPF	850 µM	–
unnamed (protein) MLSFLRSTGRPERRRASLPALLLFTAALVASGLTAAPAAQAADNPYQRGPDPTNASIEAATGPFAVGTQPIVGASGFGGGQIYYPTDTSQTYGAVVIVPGFISVWAQLNWLGPRLASQGFVVIGIETSVITDLPDPRGDQALAALDWATTRSPVASRIDRTRLAAAGWSMGGGGLRRAALQRPSLKAIVGMAPWNTERNWSAVTVPTLFFGGSSDAVASPNDHAKPFYNSITRAEKDYIELRNADHFFPTSANTTMAKYFISWLKRWVDNDTRYTQFLCPGPSTGLFAPVSASMNTCPF	840 µM	–
unnamed (protein) MLSFLRSTGRPERRRASLPALLLFTAALVASGLTAAPAAQAADNPYQRGPDPTNASIEAATGPFAVGTQPIVGASGFGGGQIYYPTDTSQTYGAVVIVPGFISVWAQLNWLGPRLASQGFVVIGIETSVITDLPDPRGDQALAALDWATTRSPVASRIDRTRLAAAGWSMGGGGLRRAALQRPSLKAIVGMAPWNGERNWSAVTVPTLFFGGSSDAVASPNDHAKPFYNSITRAEKDYIELRNADHFFPTSANTTMSKYFISWLKRWVDNDTRYTQFLCPGPSTGLFAPVSASMNTCPF	530 µM	–
unnamed (protein) MLSFLRSTGRPERRRASLPALLLFTAALVASGLTAAPAAQAADNPYQRGPDPTNASIEAATGPFAVGTQPIVGASGFGGGQIYYPTDTSQTYGAVVIVPGFISVWAQLNWLGPRLASQGFVVIGIETSVITDLPDPRGDQALAALDWATTRSPVASRIDRTRLAAAGHSMGGGGLRRAALQRPSLKAIVGMAPWNGERNWSAVTVPTLFFGGSSDAVASPNDHAKPFYNSITRAEKDYIELRNADHFFPTSANTTMAKYFISWLKRWVDNDTRYTQFLCPGPSTGLFAPVSASMNTCPF	220 µM	–

— the PETadex activity labels (doi:10.1038/s41467-023-40233-w)
